The record followed here is patent publication US9931415B2, “Pyrrolobenzodiazepine-antibody conjugates” (ADC THERAPEUTICS S.A., priority 2012, dated 2018).

Experiment [1] concerns the target T1, CD25 on SU-DHL-1 cells (Homo sapiens, UniProt P01589).
T1 construct: endogenous in cells; host or cells: Karpas299 and SU-DHL-1 cell lines
T1 sequence (P01589 22-272): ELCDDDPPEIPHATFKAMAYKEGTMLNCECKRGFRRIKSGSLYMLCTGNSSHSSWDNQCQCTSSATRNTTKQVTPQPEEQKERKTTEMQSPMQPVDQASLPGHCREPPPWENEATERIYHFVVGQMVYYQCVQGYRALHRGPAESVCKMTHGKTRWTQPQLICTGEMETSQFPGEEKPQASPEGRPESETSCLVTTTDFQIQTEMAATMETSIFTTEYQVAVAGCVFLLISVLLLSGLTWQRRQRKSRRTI
Description: Binding of HuMax-TAC to CD25 +ve cell lines by flow cytometry (SU-DHL-1). The method, then: (§1) Karpas299 and SU-DHL-1 anaplastic large cell lymphoma (ALCL)-derived cell lines have been previously reported to express CD25 (2,3). To confirm their expression profile, CD25 surface expression was analyzed by flow cytometry. HuMax-TAC was used as a CD25-specific antibody. B12 was used as a negative control antibody.
(§2) Surface CD25 expression on Karpas and SU-DHL-1 was determined by flow cytometry. Graphs represent the average of three (Karpas299) or four independent experiments (SU-DHL-1). EC50 values are reported in ng/ml.

The target of experiment [2] is T2, CD25 on Karpas299 cells (Homo sapiens, UniProt P01589).
T2 construct: Surface CD25 expression on Karpas and SU-DHL-1 was determined by flow cytometry; endogenous in cells; host or cells: Karpas299 and SU-DHL-1 cell lines
T2 sequence (P01589 22-272): T1 sequence (P01589 22-272)
Kind of experiment: Binding of HuMax-TAC to CD25 +ve cell lines by flow cytometry (Karpas299). How it is done: as §1, §2
(In flow cytometry, cells or beads pass a laser one at a time.)

The EC50 is the midpoint of the concentration-response curve. On to “HuMax-TAC: anti-CD25 antibody comprising a VH domain of SEQ ID NO. 1 and a VL domain of SEQ ID NO. 2”, for which the “binding to cell surface CD25 (flow cytometry)” value in experiment [1] and in experiment [2] was “specifically bound” in each case. Moreover, the “EC50” value in experiment [1] (flow cytometry, average of four experiments) amounted to 0.03406 µg/mL; in experiment [2] (flow cytometry, average of three experiments), 0.02021 µg/mL.
